From patent WO2012074097A1 (dated 2012) come the findings set out here.

Assay [1] deals with T1, human CD33 on cells (human CD33-expressing CHO/DG44 cell line; CD33-positive cell lines THP-1, NB-4) (human, UniProt P20138 18-364).
T1 construct: The same entry is used here for the endogenous CD33 of THP-1, NB-4 and other leukemia lines; also called hCD33; CD33 transfectant
Description: FMAT on human CD33-expressing CHO/DG44 cells, hybridoma supernatant.

Assay [2] addresses T2, Recombinant human Siglec-3 (CD33)/Fc Chimera (R&D Systems, catalog number 1137-SL) (human, UniProt P20138 18-259).
T2 construct: Bought product; also called recombinant human CD33-Fc; not shown: Fc part of the bought fusion protein; not described
Description: SPR (Biacore T-100), antibody captured on anti-mouse IgG, CD33-Fc as analyte.

Assay [3] concerns the target T1, human CD33 on cells (human …). Nature of the assay: flow cytometry on THP-1 cells. For orientation: In flow cytometry, cells or beads pass a laser one at a time.
Assay [4] has as its target T2, Recombinant human Siglec-3 (CD33)/Fc …. Description: binding ELISA, CD33-Fc on the plate.
The target of assay [5] is T3, histidine-tagged soluble human CD33 (hCD33-His) (human, UniProt P20138 18-259).
T3 construct: Human CD33 extracellular region with six histidines at the C-terminus, made in CHO/DG44 cells
T3 sequence (P20138 other isoform, or with tags, fused parts or gaps limits assumed): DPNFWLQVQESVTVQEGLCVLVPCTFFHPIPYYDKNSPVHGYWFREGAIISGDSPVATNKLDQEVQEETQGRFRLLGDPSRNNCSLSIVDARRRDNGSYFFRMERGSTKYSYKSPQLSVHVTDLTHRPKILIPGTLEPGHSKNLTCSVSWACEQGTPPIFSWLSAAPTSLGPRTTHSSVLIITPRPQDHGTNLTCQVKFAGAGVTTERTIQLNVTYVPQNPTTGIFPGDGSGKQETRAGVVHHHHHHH
Nature of the assay: SPR (Biacore T-100), antibody captured on anti-human IgG, hCD33-His as analyte. On the technique in general: Surface plasmon resonance follows binding to a sensor surface in real time, without labels.

T2 sequence (P20138 18-259 limits assumed, change not shown): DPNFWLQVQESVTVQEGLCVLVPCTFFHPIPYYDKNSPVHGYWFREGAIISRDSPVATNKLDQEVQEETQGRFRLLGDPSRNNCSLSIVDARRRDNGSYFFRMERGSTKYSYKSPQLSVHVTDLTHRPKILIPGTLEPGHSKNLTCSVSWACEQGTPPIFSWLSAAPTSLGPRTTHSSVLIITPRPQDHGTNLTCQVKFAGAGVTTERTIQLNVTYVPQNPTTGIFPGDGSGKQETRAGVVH
T1 sequence (P20138 other isoform, or with tags, fused parts or gaps limits assumed): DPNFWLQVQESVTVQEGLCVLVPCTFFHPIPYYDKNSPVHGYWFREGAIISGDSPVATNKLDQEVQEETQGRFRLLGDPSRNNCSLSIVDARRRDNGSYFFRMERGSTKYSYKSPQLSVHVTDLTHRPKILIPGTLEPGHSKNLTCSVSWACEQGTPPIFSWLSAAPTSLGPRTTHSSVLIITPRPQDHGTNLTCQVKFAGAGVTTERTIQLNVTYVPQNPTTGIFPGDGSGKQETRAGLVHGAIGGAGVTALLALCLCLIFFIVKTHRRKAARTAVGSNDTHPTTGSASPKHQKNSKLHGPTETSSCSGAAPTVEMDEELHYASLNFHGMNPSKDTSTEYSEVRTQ

B1: anti-CD33 monoclonal antibody KM4074 (antibody, V domains shown)
VH: QLQETGPGLVKPSQSLSLTCSVTGYTITSGYEWTWIRKFPGNRMEWMGYINSSGSTDYNPSLKSRVSITRDTSKNQFFLQLNSVTTEDTATYFCTRWDRWGPGVMVTVSS
VL: DVVLTQTLVAQPVRLGDQASISCRSSQSLVHSDGHTYLEWYLQKPGQSPQLLIYEISNRFSGVPDRFSGSGSGSDFTLKISRVEPEDLGLYYCFQGTHDLPTFGGGTKLELK
notes: Hybridoma antibody from rat or mouse
On to B1, for which the binding result in assay [1] and in assay [2] was “binds” in each case.

B2: anti-CD33 chimeric antibody KM4054 (antibody, V domains shown)
VH: QLQETGPGLVKPSQSLSLTCSVTGYTITSGYEWTWIRKFPGNRMEWMGYINSSGSTDYNPSLKSRVSITRDTSKNQFFLQLNSVTTEDTATYFCTRWDRWGPGVMVTVSS
VL: DVVLTQTLVAQPVRLGDQASISCRSSQSLVHSDGHTYLEWYLQKPGQSPQLLIYEISNRFSGVPDRFSGSGSGSDFTLKISRVEPEDLGLYYCFQGTHDLPTFGGGTKLELK
notes: Expressed in FUT8 knockout CHO cells, so no core fucose
Take B2: the binding result in assay [3], in assay [4] and in assay [5] was “binds” each time.

B3: modified CD33 chimeric antibody ver.4 (KM4084) (antibody, V domains shown)
VH: QLQETGPGLVKPSQSLSLTCSVTGYTITSGYEWTWIRKFPGNRMEWMGYINSAGSTDYNPSLKSRVSITRDTSKNQFFLQLNSVTTEDTATYFCTRWDRWGPGVMVTVSS
VL: DVVLTQTLVAQPVRLGDQASISCRSSQSLVHSDGHTYLEWYLQKPGQSPQLLIYEISNRFSGVPDRFSGSGSGSDFTLKISRVEPEDLGLYYCFQGTHDLPTFGGGTKLELK
For the molecule B3, the binding result in assay [5] is recorded as “binds”.

B4: modified CD33 chimeric antibody ver.5 (antibody, V domains shown)
VH: QLQETGPGLVKPSQSLSLTCSVTGYTITSGYEWTWIRKFPGNRMEWMGYINSGGSTDYNPSLKSRVSITRDTSKNQFFLQLNSVTTEDTATYFCTRWDRWGPGVMVTVSS
VL: DVVLTQTLVAQPVRLGDQASISCRSSQSLVHSDGHTYLEWYLQKPGQSPQLLIYEISNRFSGVPDRFSGSGSGSDFTLKISRVEPEDLGLYYCFQGTHDLPTFGGGTKLELK
Regarding B4, the binding result in assay [5] is “binds”.

B5: modified CD33 chimeric antibody ver.1 (antibody, V domains shown)
VH: QLQETGPGLVKPSQSLSLTCSVTGYTITSGYEWTWIRKFPGNRMEWMGYIYSSGSTDYNPSLKSRVSITRDTSKNQFFLQLNSVTTEDTATYFCTRWDRWGPGVMVTVSS
VL: DVVLTQTLVAQPVRLGDQASISCRSSQSLVHSDGHTYLEWYLQKPGQSPQLLIYEISNRFSGVPDRFSGSGSGSDFTLKISRVEPEDLGLYYCFQGTHDLPTFGGGTKLELK
As to B5, in assay [5], the binding result is “binds”.

B6: modified CD33 chimeric antibody ver.2 (antibody, V domains shown)
VH: QLQETGPGLVKPSQSLSLTCSVTGYTITSGYEWTWIRKFPGNRMEWMGYISSSGSTDYNPSLKSRVSITRDTSKNQFFLQLNSVTTEDTATYFCTRWDRWGPGVMVTVSS
VL: DVVLTQTLVAQPVRLGDQASISCRSSQSLVHSDGHTYLEWYLQKPGQSPQLLIYEISNRFSGVPDRFSGSGSGSDFTLKISRVEPEDLGLYYCFQGTHDLPTFGGGTKLELK
Take B6: the binding result in assay [5] is “binds”.

B7: modified CD33 chimeric antibody ver.3 (antibody, V domains shown)
VH: QLQETGPGLVKPSQSLSLTCSVTGYTITSGYEWTWIRKFPGNRMEWMGYIQSSGSTDYNPSLKSRVSITRDTSKNQFFLQLNSVTTEDTATYFCTRWDRWGPGVMVTVSS
VL: DVVLTQTLVAQPVRLGDQASISCRSSQSLVHSDGHTYLEWYLQKPGQSPQLLIYEISNRFSGVPDRFSGSGSGSDFTLKISRVEPEDLGLYYCFQGTHDLPTFGGGTKLELK
B7: in assay [5], the binding result is listed as “binds”.

B8: anti-CD33 monoclonal antibody KM4075 (antibody, V domains shown)
VH: QLQESGPGLVKPSQSLSLTCSVTGYTITSGSDWSWIRKFPGNKMEWMGYISYSGNTNYNPSLKSRISITRDTSKNQFFLHLNSVTTADTATYYCTGKGWGQGVMVTVSS
VL: DVVLTQTPVSLSVTLGDQASISCRSSQSLEYSDGYTYLEWYLQKPGHSPQLLIYGVSNRFSGVPDRFIGSGSGTDFTLRISRVEPEDLGVYYCFQATHDPYTFGAGTKLEL
notes: as for B1
Consider B8, for which the binding result in assay [3] and in assay [2] was “binds” in each case.

B9: anti-CD33 monoclonal antibody KM4073 (antibody, V domains shown)
VH: QVKLLQSGAALVKPGASVKMSCKVSGYTFTDYWVNWVKQSHGKTLEWIGEIYPNSGATNFNEKFKDKATLTVDRSTSTAYLEFSRLTSEDSAIYYCSLGPYWGQGVMVTVSS
VL: DVVLTQTPPTLSATIGQSVSISCRSSQSLLDSDGQTYLNWFLQRPGQSPQLLIYSVSNLESGVPNRFSGSGSETDFTLKISGVEAEDLGLYYCMQATHAPLTFGSGTNLEIK
notes: as for B1
On to B9, for which the binding result in assay [1] and in assay [2] was “binds” in each case.

B10: anti-CD33 monoclonal antibody KM4072 (antibody, V domains shown)
VH: QVQLQQSGAELVKPGASVKMSCKASGYTFTTYPIEWMKQNHGKSLEWIGNFHPYNDDTEYNEKFKGKATLTVEKSSSTVYLELSRLTSDDSAVYYCARGYYYAMDYWGQGTSVTVSS
VL: DAVMTQTPLSLPVSLGDQASISCRSSQSLEDSNGNTYLNWYLQKPGQSPQLLIYRVSNRFSGVLDRFSGSGSGTDFTLKISRVEAEDLGVYFCLQLTHVPWTFGGGTKLEIK
notes: as for B1
Consider B10, for which the binding result in assay [1] is recorded as “binds”.

B11: anti-CD33 monoclonal antibody KM4071 (antibody, V domains shown)
VH: QIQLVQSGPELKKPEETVKISCKASDYTFTDYSIHWVKQAPGKGLKWMGWINTETGETTNADDLKGRFAFSVETSASTAYLQINNLKNEDTATYFCARYRYDASYGMDYWGQGTSVTVSS
VL: STVLTQSPKSMSMSVGERVTLSCKASENVGTYVSWYQQKPEQSPELLIYGSSNRSTGVPDRFTGSGSATDFTLTISSVQAEDLADYHCGQSYSYPPTFGGGTRLEIK
notes: as for B1
As to B11, the binding result in assay [1] and in assay [2] was “binds” throughout.
